Test results as given in paper PMC3678169 (The Journal of Cell Biology, 2013).
Where no end group is shown, it is not given here. The star is where a group is joined. Dansyl = CN(C)c1cccc2c(S(=O)(=O)*)cccc12

B1: GST-p67 fusion (natural protein, human, UniProt P19878 1-526, looked up)
chain: MSLVEAISLWNEGVLAADKKDWKGALDAFSAVQDPHSRICFNIGCMYTILKNMTEAEKAFTRSINRDKHLAVAYFQRGMLYYQTEKYDLAIKDLKEALIQLRGNQLIDYKILGLQFKLFACEVLYNIAFMYAKKEEWKKAEEQLALATSMKSEPRHSKIDKAMECVWKQKLYEPVVIPVGKLFRPNERQVAQLAKKDYLGKATVVASVVDQDSFSGFAPLQPQAAEPPPRPKTPEIFRALEGEAHRVLFGFVPETKEELQVMPGNIVFVLKKGNDNWATVMFNGQKGLVPCNYLEPVELRIHPQQQPQEESSPQSDIPAPPSSKAPGRPQLSPGQKQKEEPKEVKLSVPMPYTLKVHYKYTVVMKTQPGLPYSQVRDMVSKKLELRLEHTKLSYRPRDSNELVPLSEDSMKDAWGQVKNYCLTLWCENTVGDQGFPDEPKESEKADANNQTTEPQLKKGSQVEALFSYEATQPEDLEFQEGDIILVLSKVNEEWLEGECKGKVGIFPKVFVEDCATTDLESTRREV

Assays:
[1] = biological target: His-tagged Tiam1 PHn-PHc (423–1406) (human, UniProt Q13009 423-1406); assay: pull-down
His-tagged Tiam1 PHn-PHc (423–1406), sequence (Q13009 423-1406): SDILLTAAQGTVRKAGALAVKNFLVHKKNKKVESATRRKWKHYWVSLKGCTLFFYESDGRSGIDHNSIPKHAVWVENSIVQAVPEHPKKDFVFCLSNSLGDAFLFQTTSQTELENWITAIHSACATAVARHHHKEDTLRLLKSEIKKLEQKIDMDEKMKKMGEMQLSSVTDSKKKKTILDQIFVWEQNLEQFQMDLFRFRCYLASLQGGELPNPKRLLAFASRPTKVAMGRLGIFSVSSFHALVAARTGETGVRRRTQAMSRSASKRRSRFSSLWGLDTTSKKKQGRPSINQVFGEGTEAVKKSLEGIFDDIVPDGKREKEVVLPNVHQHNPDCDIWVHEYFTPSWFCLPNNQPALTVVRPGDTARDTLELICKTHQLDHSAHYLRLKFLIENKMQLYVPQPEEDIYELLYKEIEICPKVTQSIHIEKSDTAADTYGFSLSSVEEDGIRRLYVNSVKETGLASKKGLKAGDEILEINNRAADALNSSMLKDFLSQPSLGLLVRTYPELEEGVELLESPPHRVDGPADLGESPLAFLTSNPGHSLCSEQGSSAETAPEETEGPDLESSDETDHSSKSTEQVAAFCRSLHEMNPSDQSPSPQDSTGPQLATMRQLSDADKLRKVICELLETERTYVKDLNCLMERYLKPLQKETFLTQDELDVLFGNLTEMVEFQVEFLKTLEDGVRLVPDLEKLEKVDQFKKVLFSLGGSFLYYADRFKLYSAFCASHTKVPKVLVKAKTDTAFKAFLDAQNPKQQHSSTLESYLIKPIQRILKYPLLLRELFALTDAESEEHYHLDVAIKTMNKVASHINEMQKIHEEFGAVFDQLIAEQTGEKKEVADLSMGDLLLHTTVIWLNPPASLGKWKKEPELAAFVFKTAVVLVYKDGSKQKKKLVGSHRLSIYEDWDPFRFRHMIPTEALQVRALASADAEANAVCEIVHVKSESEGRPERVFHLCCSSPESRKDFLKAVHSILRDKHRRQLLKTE

[2] = biological target: 15N-labeled Tiam1 PDZ domain (human, UniProt Q13009 841-930); assay: NMR titration
15N-labeled Tiam1 PDZ domain, sequence (Q13009 841-930): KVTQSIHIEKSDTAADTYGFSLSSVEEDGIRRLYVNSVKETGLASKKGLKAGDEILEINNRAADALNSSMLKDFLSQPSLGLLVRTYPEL

GST-p67 fusion = biological target: B1; assay: pull-down

B1
binding result [1]: binds

Dansyl-MLAELYGSDPREELLY [human VE-cadherin peptide (654–669; MLAELYGSDPREELLY)]
Kd [2]: 980 ± 150 µM

B2: His-tagged Tiam1 PHn-CC-Ex domain (429–702) (domain or fragment, human, UniProt Q13009 429-702, looked up)
chain: AAQGTVRKAGALAVKNFLVHKKNKKVESATRRKWKHYWVSLKGCTLFFYESDGRSGIDHNSIPKHAVWVENSIVQAVPEHPKKDFVFCLSNSLGDAFLFQTTSQTELENWITAIHSACATAVARHHHKEDTLRLLKSEIKKLEQKIDMDEKMKKMGEMQLSSVTDSKKKKTILDQIFVWEQNLEQFQMDLFRFRCYLASLQGGELPNPKRLLAFASRPTKVAMGRLGIFSVSSFHALVAARTGETGVRRRTQAMSRSASKRRSRFSSLWGLDTT
binding result (GST-p67 fusion): binds
